Laboratory results published in patent US20240228595A1 (YALE UNIVERSITY, published 2024).
Read-outs that look alike come from different tables or passages of the source.

Columns and labels:
[1] = molecular target: T1, SARS-COV-2 RBD-his tag protein (Sino Biological) (SARS-CoV-2, UniProt P0DTC2 319-541)
[2] = molecular target: T1, SARS-COV-2 RBD-his tag protein (Sino …); remark: listed apart in the source
[3] = molecular target: T1, SARS-COV-2 RBD-his tag protein (Sino …); remark: listed apart in the source

Binder | Kd [1] [nM] | koff [1] [s⁻¹] | kon [1] [M⁻¹ s⁻¹] | Kd [2] [nM] | koff [2] [s⁻¹] | kon [2] [M⁻¹ s⁻¹] | Kd [3] [nM] | koff [3] [s⁻¹] | kon [3] [M⁻¹ s⁻¹]
Clone 2 (antibody, V domains shown) VH: EVQLQQSGPELVKPGASVKISCKASGYSFTGYSMNWMKQSPEKSLEWIGEINPSTGGTTDNQKFKAKATLTVDKSSSTAYMQLKSLTSEDSAVYYCARSRGDYWGQGTSVTVSS VL: DIVLTQSPASLAVSLGQRATISCRASESVEYYGTSLMQWYQQKPGQPPKVLIYAASNVESGVPARFSGSGSGTDFSLNIHPVEEDDIAMYFCQQSRKVPWTFGGGTKLEIKR | 0.00158 | 1.49e-07 | 94500 | 0.0441 | 7.09e-05 | 1.61e+06 | 1.67 | 0.000853 | 511000
Clone 13 (antibody, human IgG1, kappa, V domains shown) VH: EVQLVESGGGLVQPGGSLRLSCAASGFTFSGYSMNWVRQAPGKGLEWVAEINPSTGGTTDNQKFKARFTISRDNSKNTLYLQMNSLRAEDTAVYYCARSRGDYWGQGTLVTVSS VL: DIQMTQSPSSLSASVGDRVTITCRASESVEYYGTSLMQWYQQKPGKAPKLLIYAASNVESGVPSRFSGSGSGTDFTLTISSLQPEDFATYYCQQSRKVPWTFGQGTKVEIKR |  |  |  |  |  |  | 4.17 | 0.000497 | 119000
Clone 6 (antibody, V domains shown) VH: QVQLQQSAAELARPGASVKMSCKASGYTFTSYTMHWVKQRPGQGLEWIGYINPTSGYTEYNQNFKDKTTLTADKSSSTAYMQLNSLTSEDSAVYYCAREGHRVGPAYWGQGTLVTVSA VL: not shown |  |  |  | 0.148 | 0.00056 | 3.77e+06 | 2.27 | 0.00611 | 2.69e+06
Clone 16 (Clone6-KiH-Clone2) bispecific antibody (bispecific antibody) heavy 1: not shown light 1: DIVLTQSPASLAVSLGQRATISCRASESVDNYGISFMNWFQQTPGQPPKLLIYGSSNQGSGVPARFSGSGSGTDFSLNIHPMEEDDTAMYFCQQSKEVPYTFGGGTKLEIKRTVAAPSVFIFPPSDEQLKSGTASVVCLLNNFYPREAKVQWKVDNALQSGNSQESVTEQDSKDSTYSLSSTLTLSKADYEKHKVYACEVTHQGLSSPVTKSFNRGEC heavy 2: not shown light 2: DIVLTQSPASLAVSLGQRATISCRASESVEYYGTSLMQWYQQKPGQPPKVLIYAASNVESGVPARFSGSGSGTDFSLNIHPVEEDDIAMYFCQQSRKVPWTFGGGTKLEIKRSSASTKGPSVFPLAPSSKSTSGGTAALGCLVKDYFPEPVTVSWNSGALTSGVHTFPAVLQSSGLYSLSSVVTVPSSSLGTQTYICNVNHKPSNTKVDKKVEPKSC |  |  |  |  |  |  | 2.95 | 0.00461 | 1.56e+06
